In assay [1] the target is T1, human transferrin receptor (TfR) ectodomain (ECD) (human, biotinylated where captured on streptavidin ; Biotinylated (NHS-biotin on amines, or BirA on the Avi-tag) where captured on streptavidin. It forms a homodimer, and the unique chain is given once.).
T1 construct: made in HEK293; also called human TfR; huTfR; not shown: The C-terminal cleavable His- and Avi-tags
As to the kind of experiment: ELISA, clone as Fc-Fab fusion, human TfR coated.

The target of assay [2] is T2, His-tagged permuted human TfR apical domain (TfR-AD) (human).
T2 construct: C-terminal His6; used for co-crystals (Expi293 or CHO); also called permuted TfR apical domain
T2 chain: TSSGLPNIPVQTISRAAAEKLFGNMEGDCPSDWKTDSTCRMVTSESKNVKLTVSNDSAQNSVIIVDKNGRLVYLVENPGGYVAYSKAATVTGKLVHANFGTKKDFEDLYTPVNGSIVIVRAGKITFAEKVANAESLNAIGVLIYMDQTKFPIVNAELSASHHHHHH
As to the kind of experiment: size-exclusion chromatography of the mixed proteins. (Size exclusion chromatography separates by hydrodynamic size, large species first.)

The target in assay [3] is T3, cynomolgus (cyno) transferrin receptor (TfR) ectodomain (ECD) (cynomolgus (cyno), biotinylated where captured on streptavidin ; biotinylated (sulfo-NHS-LC-biotin on amines or BirA on the Avi-tag) where captured on streptavidin).
T3 construct: made in HEK293; also called cyno TfR; cynoTfR; not shown: C-terminal cleavable His- and Avi-tags with their cleavage site
T3 chain: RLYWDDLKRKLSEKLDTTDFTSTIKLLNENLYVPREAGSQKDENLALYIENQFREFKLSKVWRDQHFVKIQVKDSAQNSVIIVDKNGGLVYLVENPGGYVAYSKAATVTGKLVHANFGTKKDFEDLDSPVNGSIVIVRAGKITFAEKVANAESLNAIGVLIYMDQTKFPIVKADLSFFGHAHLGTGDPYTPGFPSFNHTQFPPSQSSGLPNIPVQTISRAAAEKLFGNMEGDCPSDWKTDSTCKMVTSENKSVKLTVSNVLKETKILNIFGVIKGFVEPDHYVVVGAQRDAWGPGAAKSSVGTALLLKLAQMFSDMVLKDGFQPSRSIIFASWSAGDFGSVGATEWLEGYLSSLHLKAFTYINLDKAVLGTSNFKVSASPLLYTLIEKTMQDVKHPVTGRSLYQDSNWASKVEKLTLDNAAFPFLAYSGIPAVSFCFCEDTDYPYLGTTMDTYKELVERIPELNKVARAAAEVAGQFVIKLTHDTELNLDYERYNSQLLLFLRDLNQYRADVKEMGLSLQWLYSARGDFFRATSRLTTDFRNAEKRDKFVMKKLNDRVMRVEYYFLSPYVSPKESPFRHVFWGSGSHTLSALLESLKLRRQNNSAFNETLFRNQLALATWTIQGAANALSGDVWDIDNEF
As to the kind of experiment: phage ELISA, clone on phage, target coated on plate. As for the experimental part: (§1) FIGS. 1A-1D show phage ELISA results for four CH2A2 clones.
(§2) ELISA plates were coated with target, typically at […] overnight, then blocked with 1% BSA before addition of phage or periplasmic extracts. […] The plates were washed again, and then developed with TMB reagent and quenched with 2N sulfuric acid. […] Absorbance signal for tested clones was compared to negative control (phage or paraplasmic extract lacking Fc).
(An ELISA detects its analyte on a solid surface through an enzyme-linked reagent.)

The target in assay [4] is T1, human transferrin receptor (TfR) …. The assay is described as above. As for the experimental part:
as §1, §2
Target sequence in this assay (chain, as listed by the source limits assumed, form in doubt): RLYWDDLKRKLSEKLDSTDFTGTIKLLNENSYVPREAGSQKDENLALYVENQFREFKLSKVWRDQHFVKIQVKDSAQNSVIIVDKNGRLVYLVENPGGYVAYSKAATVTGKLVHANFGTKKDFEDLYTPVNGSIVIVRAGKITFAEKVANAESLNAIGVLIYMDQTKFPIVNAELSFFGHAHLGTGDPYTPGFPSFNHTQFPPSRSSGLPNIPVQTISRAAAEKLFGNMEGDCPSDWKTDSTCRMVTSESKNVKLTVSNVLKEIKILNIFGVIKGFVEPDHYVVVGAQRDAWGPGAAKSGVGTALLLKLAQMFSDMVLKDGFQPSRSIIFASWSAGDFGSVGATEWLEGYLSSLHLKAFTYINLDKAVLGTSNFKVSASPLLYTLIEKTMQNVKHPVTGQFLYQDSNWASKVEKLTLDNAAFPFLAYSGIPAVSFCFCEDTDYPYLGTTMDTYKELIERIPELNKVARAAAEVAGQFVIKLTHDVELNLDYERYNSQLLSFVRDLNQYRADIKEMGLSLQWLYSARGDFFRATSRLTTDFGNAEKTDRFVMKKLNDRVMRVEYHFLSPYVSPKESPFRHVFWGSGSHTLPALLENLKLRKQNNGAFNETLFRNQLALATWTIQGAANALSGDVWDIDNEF

Changes are numbered by the printed parent chain.

B1: Clone CH2C.6 (designed binder)
chain: PCPAPELLGGPSVFLFPPKPKDTLMISRTPEVTCVVVDPKMPPWEVKFNWYVDGVEVHNAKTKPREEEYYTYYRVVSVLTVLHQDWLNGKEYKCKVSNKALPAPIEKTISKAKGQPREPQVYTLPPSRDELTKNQVSLTCLVKGFYPSDIAVEWESNGQPENNYKTTPPVLDSDGSFFLYSKLTVDKSRWQQGNVFSCSVMHEALHNHYTQKSLSLSPGK
notes: modified human IgG1 Fc, phage display
Consider B1, for which the “EC50 (read off the curve)” value in assay [1] is approximately 2 nM.

B2: CH3C.18 Fc (expressed engineered human Fc) (designed binder)
chain: DKTHTCPPCPAPEAAGGPSVFLFPPKPKDTLYITREPEVTCVVVDVSHEDPEVKFNWYVDGVEVHNAKTKPREEQYNSTYRVVSVLTVLHQDWLNGKEYKCKVSNKALGAPIEKTISKAKGQPREPQVYTLPPSRDELTKNQVSLTCLVKGFYPSDIAVEWESLGHVWAVYKTTPPVLDSDGSFFLYSKLTVPKSTWQQGWVFSCSVMHEALHNHYTQKSLSLSPGK
notes: also called CH3C.18 Fc polypeptide
For the molecule B2, in assay [2], the binding result is on record as “binds”.

B3: CH3C.35 Fc (expressed engineered human Fc) (designed binder)
chain: B2 chain with L164Y, H166T, V167E, A169S, V170S, P193T, T196E, W201F
B3: in assay [2], the binding result is listed as “binds”.

B4: Clone CH2A2.4 (designed binder)
chain: PCPAPELLGGPSVFLFPPKPKDTLMISRTPEVTCVVVDVSHEDPEVSFEWYVDGVPVRWEWQWPREEQYNSTYRVVSVLTVLHQDWLNGKEYKCKVSNKALPAPIEKTISKAKGQPREPQVYTLPPSRDELTKNQVSLTCLVKGFYPSDIAVEWESNGQPENNYKTTPPVLDSDGSFFLYSKLTVDKSRWQQGNVFSCSVMHEALHNHYTQKSLSLSPGK
notes: as for B1
As for B4, the “EC50 (read off the curve)” value in assay [3] and in assay [4] was ~0.02 OD268 (phage solution) in each case.

B5: Clone CH2A2.5 (designed binder)
chain: B4 chain with S47A, E49T, W63N
notes: as for B1
As to B5, the “EC50 (read off the curve)” value is ~0.01 OD268 (phage solution) in assay [3] and ~0.008 OD268 (phage solution) in assay [4].

B6: Clone CH2A2.1 (designed binder)
chain: B4 chain with S47E, E49I, P56D, W59Y, W63L
notes: as for B1
Take B6: the “EC50 (read off the curve)” value in assay [3] is ~0.04 OD268 (phage solution); in assay [4], ~0.03 OD268 (phage solution).

B7: Clone CH2A2.16 (designed binder)
chain: B4 chain with S47W, P56F, R58G, W59V, E60A, W61Y, Q62D, W63V
notes: as for B1
B7: the “EC50 (read off the curve)” value in assay [4] was ~0.04 OD268 (phage solution).
